# Where no end group is shown, it is not given here. [ ]: non-standard residue; d: D form. The star is where a group is joined. Decanoyl = CCCCCCCCCC(=O)*; Aib = CC(C)(N)C(=O)O
# T1: human GLP-2R (glucagon-like peptide-2 receptor) (human, UniProt O95838 1-553)
# T1 sequence (looked up): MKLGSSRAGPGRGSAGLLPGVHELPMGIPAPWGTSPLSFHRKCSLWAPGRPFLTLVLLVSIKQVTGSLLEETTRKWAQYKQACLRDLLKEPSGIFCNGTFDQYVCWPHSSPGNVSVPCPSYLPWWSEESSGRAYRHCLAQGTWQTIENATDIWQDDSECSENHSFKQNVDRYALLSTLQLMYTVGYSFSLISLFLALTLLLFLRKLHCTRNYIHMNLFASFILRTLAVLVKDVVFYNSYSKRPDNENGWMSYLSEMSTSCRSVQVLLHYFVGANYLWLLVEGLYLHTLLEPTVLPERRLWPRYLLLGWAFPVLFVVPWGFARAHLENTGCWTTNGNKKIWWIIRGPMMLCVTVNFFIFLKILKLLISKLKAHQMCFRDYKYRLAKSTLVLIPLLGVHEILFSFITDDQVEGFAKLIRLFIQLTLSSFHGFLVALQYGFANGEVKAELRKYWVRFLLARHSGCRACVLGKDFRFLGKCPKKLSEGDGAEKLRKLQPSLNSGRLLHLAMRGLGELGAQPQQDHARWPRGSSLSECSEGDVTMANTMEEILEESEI
# T2: human GIPR (glucose-dependent insulinotropic polypeptide receptor) (human, UniProt P48546 22-466)
# T2 sequence (looked up): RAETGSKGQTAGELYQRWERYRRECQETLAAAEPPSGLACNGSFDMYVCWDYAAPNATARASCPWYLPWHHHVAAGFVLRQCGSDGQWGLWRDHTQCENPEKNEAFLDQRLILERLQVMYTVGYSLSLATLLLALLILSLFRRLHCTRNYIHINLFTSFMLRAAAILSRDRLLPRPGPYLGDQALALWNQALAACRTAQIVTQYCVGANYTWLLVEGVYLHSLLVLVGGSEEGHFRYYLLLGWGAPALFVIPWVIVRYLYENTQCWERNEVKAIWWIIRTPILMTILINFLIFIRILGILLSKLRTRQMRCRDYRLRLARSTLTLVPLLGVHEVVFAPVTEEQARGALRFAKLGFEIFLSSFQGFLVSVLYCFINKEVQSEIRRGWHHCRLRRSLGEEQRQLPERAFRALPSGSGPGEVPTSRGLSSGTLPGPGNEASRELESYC
# B1: Compound 4 (peptide)
# peptide: H[Aib]DGTFISDYSTILDLLAARDFINWLIQTKITK(Decanoyl)-NH2
# modifications: N-terminus assumed
# SMILES: CCCCCCCCCC(=O)NCCCC[C@H](NC(=O)[C@@H](NC(=O)[C@@H](NC(=O)[C@H](CCCCN)NC(=O)[C@@H](NC(=O)[C@H](CCC(N)=O)NC(=O)[C@@H](NC(=O)[C@H](CC(C)C)NC(=O)[C@H](Cc1c[nH]c2ccccc12)NC(=O)[C@H](CC(N)=O)NC(=O)[C@@H](NC(=O)[C@H](Cc1ccccc1)NC(=O)[C@H](CC(=O)O)NC(=O)[C@H](CCCNC(=N)N)NC(=O)[C@H](C)NC(=O)[C@H](C)NC(=O)[C@H](CC(C)C)NC(=O)[C@H](CC(C)C)NC(=O)[C@H](CC(=O)O)NC(=O)[C@H](CC(C)C)NC(=O)[C@@H](NC(=O)[C@@H](NC(=O)[C@H](CO)NC(=O)[C@H](Cc1ccc(O)cc1)NC(=O)[C@H](CC(=O)O)NC(=O)[C@H](CO)NC(=O)[C@@H](NC(=O)[C@H](Cc1ccccc1)NC(=O)[C@@H](NC(=O)CNC(=O)[C@H](CC(=O)O)NC(=O)C(C)(C)NC(=O)[C@@H](N)Cc1c[nH]cn1)[C@@H](C)O)[C@@H](C)CC)[C@@H](C)O)[C@@H](C)CC)[C@@H](C)CC)[C@@H](C)CC)[C@@H](C)O)[C@@H](C)CC)[C@@H](C)O)C(N)=O
# B2: Compound 7 (peptide)
# peptide: H-H[Aib]DGTFISDYSTILENLAARDFINWLIQTKITK(Decanoyl)-NH2
# SMILES: CCCCCCCCCC(=O)NCCCC[C@H](NC(=O)[C@@H](NC(=O)[C@@H](NC(=O)[C@H](CCCCN)NC(=O)[C@@H](NC(=O)[C@H](CCC(N)=O)NC(=O)[C@@H](NC(=O)[C@H](CC(C)C)NC(=O)[C@H](Cc1c[nH]c2ccccc12)NC(=O)[C@H](CC(N)=O)NC(=O)[C@@H](NC(=O)[C@H](Cc1ccccc1)NC(=O)[C@H](CC(=O)O)NC(=O)[C@H](CCCNC(=N)N)NC(=O)[C@H](C)NC(=O)[C@H](C)NC(=O)[C@H](CC(C)C)NC(=O)[C@H](CC(N)=O)NC(=O)[C@H](CCC(=O)O)NC(=O)[C@H](CC(C)C)NC(=O)[C@@H](NC(=O)[C@@H](NC(=O)[C@H](CO)NC(=O)[C@H](Cc1ccc(O)cc1)NC(=O)[C@H](CC(=O)O)NC(=O)[C@H](CO)NC(=O)[C@@H](NC(=O)[C@H](Cc1ccccc1)NC(=O)[C@@H](NC(=O)CNC(=O)[C@H](CC(=O)O)NC(=O)C(C)(C)NC(=O)[C@@H](N)Cc1c[nH]cn1)[C@@H](C)O)[C@@H](C)CC)[C@@H](C)O)[C@@H](C)CC)[C@@H](C)CC)[C@@H](C)CC)[C@@H](C)O)[C@@H](C)CC)[C@@H](C)O)C(N)=O
# B3: Compound 3 (peptide)
# peptide: H[Aib]DGTFISDYATILDNLAARDFINWLIQTKITK(Decanoyl)-OH
# modifications: N-terminus assumed
# SMILES: CCCCCCCCCC(=O)NCCCC[C@H](NC(=O)[C@@H](NC(=O)[C@@H](NC(=O)[C@H](CCCCN)NC(=O)[C@@H](NC(=O)[C@H](CCC(N)=O)NC(=O)[C@@H](NC(=O)[C@H](CC(C)C)NC(=O)[C@H](Cc1c[nH]c2ccccc12)NC(=O)[C@H](CC(N)=O)NC(=O)[C@@H](NC(=O)[C@H](Cc1ccccc1)NC(=O)[C@H](CC(=O)O)NC(=O)[C@H](CCCNC(=N)N)NC(=O)[C@H](C)NC(=O)[C@H](C)NC(=O)[C@H](CC(C)C)NC(=O)[C@H](CC(N)=O)NC(=O)[C@H](CC(=O)O)NC(=O)[C@H](CC(C)C)NC(=O)[C@@H](NC(=O)[C@@H](NC(=O)[C@H](C)NC(=O)[C@H](Cc1ccc(O)cc1)NC(=O)[C@H](CC(=O)O)NC(=O)[C@H](CO)NC(=O)[C@@H](NC(=O)[C@H](Cc1ccccc1)NC(=O)[C@@H](NC(=O)CNC(=O)[C@H](CC(=O)O)NC(=O)C(C)(C)NC(=O)[C@@H](N)Cc1c[nH]cn1)[C@@H](C)O)[C@@H](C)CC)[C@@H](C)O)[C@@H](C)CC)[C@@H](C)CC)[C@@H](C)CC)[C@@H](C)O)[C@@H](C)CC)[C@@H](C)O)C(=O)O
# B4: Compound 8 (peptide)
# peptide: H-H[Aib]DGTFISDYSTILDNLAAREFINWLIQTKITK(Decanoyl)-NH2
# SMILES: CCCCCCCCCC(=O)NCCCC[C@H](NC(=O)[C@@H](NC(=O)[C@@H](NC(=O)[C@H](CCCCN)NC(=O)[C@@H](NC(=O)[C@H](CCC(N)=O)NC(=O)[C@@H](NC(=O)[C@H](CC(C)C)NC(=O)[C@H](Cc1c[nH]c2ccccc12)NC(=O)[C@H](CC(N)=O)NC(=O)[C@@H](NC(=O)[C@H](Cc1ccccc1)NC(=O)[C@H](CCC(=O)O)NC(=O)[C@H](CCCNC(=N)N)NC(=O)[C@H](C)NC(=O)[C@H](C)NC(=O)[C@H](CC(C)C)NC(=O)[C@H](CC(N)=O)NC(=O)[C@H](CC(=O)O)NC(=O)[C@H](CC(C)C)NC(=O)[C@@H](NC(=O)[C@@H](NC(=O)[C@H](CO)NC(=O)[C@H](Cc1ccc(O)cc1)NC(=O)[C@H](CC(=O)O)NC(=O)[C@H](CO)NC(=O)[C@@H](NC(=O)[C@H](Cc1ccccc1)NC(=O)[C@@H](NC(=O)CNC(=O)[C@H](CC(=O)O)NC(=O)C(C)(C)NC(=O)[C@@H](N)Cc1c[nH]cn1)[C@@H](C)O)[C@@H](C)CC)[C@@H](C)O)[C@@H](C)CC)[C@@H](C)CC)[C@@H](C)CC)[C@@H](C)O)[C@@H](C)CC)[C@@H](C)O)C(N)=O
# B5: Compound 15 (peptide)
# peptide: H[Aib]DGTFISDYSTILDNIAARDFINWLIQTKITK(Decanoyl)-NH2
# modifications: N-terminus assumed
# SMILES: CCCCCCCCCC(=O)NCCCC[C@H](NC(=O)[C@@H](NC(=O)[C@@H](NC(=O)[C@H](CCCCN)NC(=O)[C@@H](NC(=O)[C@H](CCC(N)=O)NC(=O)[C@@H](NC(=O)[C@H](CC(C)C)NC(=O)[C@H](Cc1c[nH]c2ccccc12)NC(=O)[C@H](CC(N)=O)NC(=O)[C@@H](NC(=O)[C@H](Cc1ccccc1)NC(=O)[C@H](CC(=O)O)NC(=O)[C@H](CCCNC(=N)N)NC(=O)[C@H](C)NC(=O)[C@H](C)NC(=O)[C@@H](NC(=O)[C@H](CC(N)=O)NC(=O)[C@H](CC(=O)O)NC(=O)[C@H](CC(C)C)NC(=O)[C@@H](NC(=O)[C@@H](NC(=O)[C@H](CO)NC(=O)[C@H](Cc1ccc(O)cc1)NC(=O)[C@H](CC(=O)O)NC(=O)[C@H](CO)NC(=O)[C@@H](NC(=O)[C@H](Cc1ccccc1)NC(=O)[C@@H](NC(=O)CNC(=O)[C@H](CC(=O)O)NC(=O)C(C)(C)NC(=O)[C@@H](N)Cc1c[nH]cn1)[C@@H](C)O)[C@@H](C)CC)[C@@H](C)O)[C@@H](C)CC)[C@@H](C)CC)[C@@H](C)CC)[C@@H](C)CC)[C@@H](C)O)[C@@H](C)CC)[C@@H](C)O)C(N)=O
# Target: T1, human GLP-2R (glucagon-like peptide-2 …)
# Assay: cell-based or functional assay
EC50 (nM) GLP-2R [nM],Efficacy GLP-2R,logEC50 GLP-2R,Binder
28.2,92,7.6,B1
,105,,"HXDGTFISDYSTILDNLAARDFINWLIQTKITK (Aib at position 2; K33 acylated with C10, K(C10); C-terminus -OH) [Compound 2]"
12.6,97,7.9,B2
2.8,101,8.6,B3

# Target: T2, human GIPR (glucose-dependent …)
# Assay: cell-based or functional assay
EC50 (nM) GIPR [nM],Efficacy GIPR,pEC50 GIPR,Binder
1.12,102,9,B1
,99,,"HXDGTFISDYSTILDNLAARDFINWLIQTKITK (Aib at position 2; K33 acylated with C10, K(C10); C-terminus -OH) [Compound 2]"
1.12,99,9,B4
0.794,96,9.1,B2
,80,9.2,B3
0.794,98,9.1,B5

# Target: human GLP-1R (glucagon-like peptide-1 receptor) (human, UniProt P43220 24-463)
# Assay: cell-based or functional assay
EC50 (nM) GLP-1R [nM],Efficacy GLP-1R,logEC50 GLP-1R,Binder
25.1,82,7.6,B1
,84,,"HXDGTFISDYSTILDNLAARDFINWLIQTKITK (Aib at position 2; K33 acylated with C10, K(C10); C-terminus -OH) [Compound 2]"
2.24,98,8.7,B4
1.78,94,8.8,B3
4.73,90,8.3,B5

# From patent US20250304644A1, “PEPTIDES TRIPLE AGONISTS OF GIP, GLP-1 AND GLP-2” (BAINAN BIOTECH APS, priority 2021, published 2025)
